T1: human OX40 (human, UniProt P43489 29-277)
T1 construct: The form used for the Y182A statement ('native') is not described; also called native human OX40; CD134
T1 sequence: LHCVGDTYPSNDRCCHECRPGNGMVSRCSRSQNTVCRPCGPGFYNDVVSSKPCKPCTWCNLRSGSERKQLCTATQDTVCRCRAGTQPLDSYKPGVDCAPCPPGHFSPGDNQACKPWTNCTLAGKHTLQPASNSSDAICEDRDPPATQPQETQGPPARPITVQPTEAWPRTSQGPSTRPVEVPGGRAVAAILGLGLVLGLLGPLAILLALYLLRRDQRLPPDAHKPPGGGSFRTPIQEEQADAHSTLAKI

T2: mouse OX40 (mouse, UniProt P47741 20-272, limits assumed)
T2 construct: also called native mouse OX40
T2 sequence (looked up): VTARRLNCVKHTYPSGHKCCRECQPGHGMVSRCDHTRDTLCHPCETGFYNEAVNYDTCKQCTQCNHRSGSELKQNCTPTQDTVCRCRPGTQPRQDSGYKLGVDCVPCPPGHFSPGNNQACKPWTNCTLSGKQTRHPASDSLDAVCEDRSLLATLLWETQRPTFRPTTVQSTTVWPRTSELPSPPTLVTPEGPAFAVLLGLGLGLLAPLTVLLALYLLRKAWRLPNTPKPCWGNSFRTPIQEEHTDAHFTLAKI

B1: MEDI4736 (antibody, human IgG1, V domains shown)
VH: EVQLVESGGGLVQPGGSLRLSCAASGFTFSRYWMSWVRQAPGKGLEWVANIKQDGSEKYYVDSVKGRFTISRDNAKNSLYLQMNSLRAEDTAVYYCAREGGWFGELAFDYWGQGTLVTVSS
VL: EIVLTQSPGTLSLSPGERATLSCRASQRVSSSYLAWYQQKPGQAPRLLIYDASSRATGIPDRFSGSGSGTDFTLTISRLEPEDFAVYYCQQYGSLPWTFGQGTKVEIK
notes: also called 2.14H9OPT
B2: Y182A mutant mouse OX40L mouse IgG1 fusion protein control (Fc fusion, UniProt P43488 51-198, looked up)
chain: SSSPAKDPPIQRLRGAVTRCEDGQLFISSYKNEYQTMEVQNNSVVIKCDGLYIIYLKGSFFQEVKIDLHFREDHNPISIPMLNDGRRIVFTVVASLAFKDKVYLTVNAPDTLCEHLQINDGELIVVQLTPGACAPEGSYHSTVNQVPL
notes: also called OX40L FP Y182A; mOX40L FP Y182A; not shown: mouse IgG1 Fc domain and any linker or trimerization domain

Assays:
Experiment in all cases: not described
[1] = biological target: mouse PD-L1 (mouse, UniProt Q9EP73 19-239, limits assumed)
mouse PD-L1, sequence (Q9EP73 19-239 limits assumed): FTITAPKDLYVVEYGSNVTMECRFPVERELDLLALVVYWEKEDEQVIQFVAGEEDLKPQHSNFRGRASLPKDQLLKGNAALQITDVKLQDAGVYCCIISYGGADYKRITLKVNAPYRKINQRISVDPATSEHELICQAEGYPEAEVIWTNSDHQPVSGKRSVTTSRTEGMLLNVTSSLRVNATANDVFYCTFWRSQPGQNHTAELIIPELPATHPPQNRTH

[2] = biological target: T1, human OX40
[3] = biological target: T2, mouse OX40

| Binder | binding result [1] | binding result [2] | binding result [3] |
| --- | --- | --- | --- |
| B1 | no binding | – | – |
| B2 | – | no binding | no binding |
